Experimental data: patent publication US20060110789

Key:
[1] = molecular target: T1, M3+TE (module 3 of DEBS with its own N-terminal linker, fused to thioesterase), Q03132
T1 chain: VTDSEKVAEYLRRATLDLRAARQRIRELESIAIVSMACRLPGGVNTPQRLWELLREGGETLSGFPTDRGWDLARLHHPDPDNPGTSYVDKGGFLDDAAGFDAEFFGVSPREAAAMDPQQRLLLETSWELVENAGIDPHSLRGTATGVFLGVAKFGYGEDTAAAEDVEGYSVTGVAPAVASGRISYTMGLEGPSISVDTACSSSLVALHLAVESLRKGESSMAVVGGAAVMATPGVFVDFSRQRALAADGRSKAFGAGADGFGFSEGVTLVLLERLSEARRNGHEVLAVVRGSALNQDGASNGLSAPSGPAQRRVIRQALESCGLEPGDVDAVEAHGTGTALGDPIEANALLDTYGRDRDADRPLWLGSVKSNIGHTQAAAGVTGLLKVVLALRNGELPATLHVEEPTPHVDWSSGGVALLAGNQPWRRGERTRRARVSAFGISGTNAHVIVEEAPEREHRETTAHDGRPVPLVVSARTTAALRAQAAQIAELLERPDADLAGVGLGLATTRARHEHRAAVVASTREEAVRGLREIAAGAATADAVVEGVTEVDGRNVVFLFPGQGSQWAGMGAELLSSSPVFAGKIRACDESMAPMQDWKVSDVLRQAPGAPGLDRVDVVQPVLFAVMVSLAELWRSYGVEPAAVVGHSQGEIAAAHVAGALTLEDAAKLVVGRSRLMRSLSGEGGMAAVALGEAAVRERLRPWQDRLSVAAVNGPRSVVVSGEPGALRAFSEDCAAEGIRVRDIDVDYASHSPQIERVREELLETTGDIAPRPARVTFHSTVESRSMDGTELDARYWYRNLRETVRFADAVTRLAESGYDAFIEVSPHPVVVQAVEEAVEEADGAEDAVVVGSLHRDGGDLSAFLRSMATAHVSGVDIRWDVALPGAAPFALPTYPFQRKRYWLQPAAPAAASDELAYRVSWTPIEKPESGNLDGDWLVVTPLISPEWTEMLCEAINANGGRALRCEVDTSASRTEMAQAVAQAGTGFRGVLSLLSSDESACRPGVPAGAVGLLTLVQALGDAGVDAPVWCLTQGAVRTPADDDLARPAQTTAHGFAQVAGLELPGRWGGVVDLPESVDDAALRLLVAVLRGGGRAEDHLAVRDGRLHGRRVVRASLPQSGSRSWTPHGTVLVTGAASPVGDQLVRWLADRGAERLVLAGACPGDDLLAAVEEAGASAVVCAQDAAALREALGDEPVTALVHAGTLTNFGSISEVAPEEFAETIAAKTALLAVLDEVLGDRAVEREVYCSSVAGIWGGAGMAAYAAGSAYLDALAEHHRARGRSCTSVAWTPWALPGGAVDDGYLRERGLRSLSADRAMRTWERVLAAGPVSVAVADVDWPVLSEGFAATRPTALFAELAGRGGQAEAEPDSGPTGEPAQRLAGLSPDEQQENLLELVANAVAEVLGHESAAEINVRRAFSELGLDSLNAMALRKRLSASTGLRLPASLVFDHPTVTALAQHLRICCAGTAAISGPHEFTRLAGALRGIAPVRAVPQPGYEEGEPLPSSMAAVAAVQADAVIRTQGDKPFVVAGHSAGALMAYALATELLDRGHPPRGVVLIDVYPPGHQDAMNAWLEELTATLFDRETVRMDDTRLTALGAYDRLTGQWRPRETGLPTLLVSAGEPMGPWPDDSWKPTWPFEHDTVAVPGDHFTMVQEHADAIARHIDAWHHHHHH

[2] = molecular target: T2, (5)M3+TE (module 3 of DEBS with the N-terminal linker of module 5, fused to thioesterase), Q03132
T2 chain: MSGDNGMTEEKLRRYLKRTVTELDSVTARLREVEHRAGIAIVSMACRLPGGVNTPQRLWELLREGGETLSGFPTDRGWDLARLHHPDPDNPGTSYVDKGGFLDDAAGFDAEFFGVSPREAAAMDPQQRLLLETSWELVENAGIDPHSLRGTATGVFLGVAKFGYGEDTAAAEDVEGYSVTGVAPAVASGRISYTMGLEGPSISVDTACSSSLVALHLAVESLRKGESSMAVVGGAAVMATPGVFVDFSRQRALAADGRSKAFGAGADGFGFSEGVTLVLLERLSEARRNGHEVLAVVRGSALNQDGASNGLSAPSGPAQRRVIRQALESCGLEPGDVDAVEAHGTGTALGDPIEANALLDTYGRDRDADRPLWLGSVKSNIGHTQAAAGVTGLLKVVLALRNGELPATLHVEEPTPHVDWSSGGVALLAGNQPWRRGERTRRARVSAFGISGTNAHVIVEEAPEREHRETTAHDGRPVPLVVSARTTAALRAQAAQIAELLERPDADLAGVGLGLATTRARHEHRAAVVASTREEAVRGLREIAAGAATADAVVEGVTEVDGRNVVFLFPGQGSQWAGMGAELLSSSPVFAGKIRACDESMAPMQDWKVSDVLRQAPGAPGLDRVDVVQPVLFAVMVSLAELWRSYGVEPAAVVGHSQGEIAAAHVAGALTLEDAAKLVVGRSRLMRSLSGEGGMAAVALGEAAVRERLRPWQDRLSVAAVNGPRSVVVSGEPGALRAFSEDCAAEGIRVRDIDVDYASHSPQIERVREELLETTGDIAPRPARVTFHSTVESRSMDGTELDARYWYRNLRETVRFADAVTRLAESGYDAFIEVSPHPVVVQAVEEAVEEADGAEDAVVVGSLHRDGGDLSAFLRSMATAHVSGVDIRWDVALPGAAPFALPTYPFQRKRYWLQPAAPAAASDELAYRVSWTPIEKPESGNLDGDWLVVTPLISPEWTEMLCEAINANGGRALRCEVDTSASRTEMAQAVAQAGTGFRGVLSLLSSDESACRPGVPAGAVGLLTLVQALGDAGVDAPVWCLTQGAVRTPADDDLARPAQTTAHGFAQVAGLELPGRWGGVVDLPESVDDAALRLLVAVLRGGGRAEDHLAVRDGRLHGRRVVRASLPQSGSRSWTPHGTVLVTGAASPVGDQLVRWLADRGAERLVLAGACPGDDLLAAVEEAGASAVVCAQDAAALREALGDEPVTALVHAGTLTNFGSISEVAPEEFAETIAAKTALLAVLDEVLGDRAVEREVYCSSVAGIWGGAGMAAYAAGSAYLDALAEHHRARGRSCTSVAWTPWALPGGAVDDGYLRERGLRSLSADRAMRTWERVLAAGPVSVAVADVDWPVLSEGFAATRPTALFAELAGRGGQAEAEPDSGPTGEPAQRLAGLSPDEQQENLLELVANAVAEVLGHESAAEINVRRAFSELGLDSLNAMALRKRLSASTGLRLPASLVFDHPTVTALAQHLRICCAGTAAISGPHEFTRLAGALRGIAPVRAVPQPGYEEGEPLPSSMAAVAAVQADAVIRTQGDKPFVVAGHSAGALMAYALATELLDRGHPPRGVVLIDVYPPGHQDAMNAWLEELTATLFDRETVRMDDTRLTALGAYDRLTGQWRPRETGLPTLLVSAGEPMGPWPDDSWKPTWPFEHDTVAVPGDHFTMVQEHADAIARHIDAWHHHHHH

B1: M2(4) (module 2 of DEBS with the C-terminal linker of module 4) (protein)
chain: MSGDNGMTEEKLRRYLKRTVTELDSVTARLREVEHRAGIAIVGMACRLPGEVDSPERLWELITSGRDSAAEVPDDRGWVPDELMASDAAGTRAHGNFMAGAGDFDAAFFGISPREALAMDPQQRQALETTWEALESAGIPPETLRGSDTGVFVGMSHQGYATGRPRPEDGVDGYLLTGNTASVASGRIAYVLGLEGPALTVDTACSSSLVALHTACGSLRDGDCGLAVAGGVSVMAGPEVFTEFSRQGALSPDGRCKPFSDEADGFGLGEGSAFVVLQRLSDARREGRRVLGVVAGSAVNQDGASNGLSAPSGVAQQRVIRRAWARAGITGADVAVVEAHGTGTRLGDPVEASALLATYGKSRGSSGPVLLGSVKSNIGHAQAAAGVAGVIKVLLGLERGVVPPMLCRGERSGLIDWSSGEIELADGVREWSPAADGVRRAGVSAFGVSGTNAHVIIAEPPEPEPVPQPRRMLPATGVVPVVLSARTGAALRAQAGRLADHLAAHPGIAPADVSWTMARARQHFEERAAVLAADTAEAVHRLRAVADGAVVPGVVTGSASDGGSVFVFPGQGAQWEGMARELLPVPVFAESIAECDAVLSEVAGFSVSEVLEPRPDAPSLERVDVVQPVLFAVMVSLARLWRACGAVPSAVIGHSQGEIAAAVVAGALSLEDGMRVVARRSRAVRAVAGRGSMLSVRGGRSDVEKLLADDSWTGRLEVAAVNGPDAVVVAGDAQAAREFLEYCEGVGIRARAIPVDYASHTAHVEPVRDELVQALAGITPRRAEVPFFSTLTGDFLDGTELDAGYWYRNLRHPVEFHSAVQALTDQGYATFIEVSPHPVLASSVQETLDDAESDAAVLGTLERDAGDADRFLTALADAHTRGVAVDWEAVLGRAGLVDLPGYPFQGKRFWLLPDRTTPRDELDGWFYRVDWTEVPRSEPAALRGRWLVVVPEGHEEDGWTVEVRSALAEAGAEPEVTRGVGGLVGDCAGVVSLLALEGDGAVQTLVLVRELDAEGIDAPLWTVTFGAVDAGSPVARPDQAKLWGLGQVASLERGPRWTGLVDLPHMPDPELRGRLTAVLAGSEDQVAVRADAVRARRLSPAHVTATSEYAVPGGTILVTGGTAGLGAEVARWLAGRGAEHLALVSRRGPDTEGVGDLTAELTRLGARVSVHACDVSSREPVRELVHGLIEQGDVVRGVVHAAGLPQQVAINDMDEAAFDEVVAAKAGGAVHLDELCSDAELFLLFSSGAGVWGSARQGAYAAGNAFLDAFARHRRGRGLPATSVAWGLWAAGGMTGDEEAVSFLRERGVRAMPVPRALAALDRVLASGETAVVVTDVDWPAFAESYTAARPRPLLDRIVTTAPSERAGEPETESLRDRLAGLPRAERTAELVRLVRTSTATVLGHDDPKAVRATTPFKELGFDSLAAVRLRNLLNAATGLRLPSTLVFDHPNASAVAGFLDFAASPAVDIGDRLDELEKALEALSAEDGHDDVGQRLESLLRRWNSRRADAPSTSAISEDASDDELFSMLDQRFGGGEDL
Q: How did the “highest rate constant of tetraketide lactone 2 formation (mismatched linkers)” value [1] turn out when B1 was run?
A: in the range of 0.02-0.03 min^-1

Q: What about the “KM, fold increase against the natural linker pair (M2 with M3+TE)” value [2] of the same protein?
A: the increase in KM value upon swapping in the alternate linker pair is a more modest 2-fold

Q: What about the “kcat of tetraketide lactone 2 synthesis” value [2] of the same protein?
A: kcat of 0.74±0.06 min^-1
